Test results published in publication PMC13626733, “Molecular basis of high-torque transmission of the Vibrio polar flagellar motor” (Protein & Cell, 2026).

Tests used:
Experiment in all cases: cryo-EM structure; polar flagellar motor-hook complex purified as a whole from V. alginolyticus KK148 ΔflgL; local refinements of the LPHT ring, hook, rod, export apparatus and MS ring; LPHT ring particles also obtained by disassembling the complex at reduced salt
[1] = molecular target: FlgT (Vibrio alginolyticus (endogenous in strain KK148 ΔflgL))
[2] = molecular target: FlgI (Vibrio alginolyticus (endogenous in strain KK148 ΔflgL))
[3] = molecular target: FlgH (Vibrio alginolyticus (endogenous in strain KK148 ΔflgL))
[4] = molecular target: the molecule itself

## FlgT (natural protein)
[1]
  stoichiometry N: 26

## FlgI (natural protein)
[2]
  stoichiometry N: 26

## FlgH (natural protein)
[3]
  stoichiometry N: 26

B1: FliF (natural protein, UniProt Q75N27 1-580, looked up)
chain: MADKSTDLTVTEGGSDGALVASSDVDVESQNPDLEERSASKFDMAVGDLDLLRQVVLVLSISICVALIVMLFFWVKEPEMRPLGAYETEELIPVLDYLDQQKINYKLDGNTISVESSEYNSIKLGMVRSGVNQATEAGDDILLQDMGFGVSQRLEQERLKLSRERQLAQAIEEMKQVRKARVLLALPKHSVFVRHNQEASASVFLTLSTGTNLKQQEVDSIVDMVASAVPGMKTSRITVTDQHGRLLSSGSQDPASAARRKEQELERSQEQALREKIDSVLLPILGYGNYTAQVDIQMDFSAVEQTRKRFDPNTPATRSEYALEDYNNGNMVAGIPGALSNQPPADASIPQDVAQMKDGSVMGQGSVRKESTRNFELDTTISHERKQTGTVARQTVSVAIKDRRQVNPDTGEVTYTPMSESEINAIRQVLIGTVGFDQGRGDLLNVLSVKFAEPEAEQLEEPPIWEHPNFSDWVRWFASALVIIVVVLVLVRPAMKKLLNPTSDDEDEMYGPDGLPIGADGETSLIGSDIESSELFEFGSSIDLPNLHKDEDVLKAVRALVANEPELAAQVVKNWMNDNG
notes: FliF, MS ring subunit of the polar flagellar motor, Vibrio alginolyticus; domains RBM2, RBM3, β-collar; extended peptide loops LA, LB, LC; 34 subunits form the MS ring; 23 RBM2 domains seen in the RBM2 subring; also called MS ring protein; FliF peptide loops LA, LB, LC; source: endogenous, purified within the polar flagellar motor-hook complex from V. alginolyticus KK148 ΔflgL
[4]
  stoichiometry N: 34
